Data reported in patent US20100196361A1, “Method of inhibition of vascular development using an antibody” (DYAX CORP., priority 2003, published 2010).
Substitutions are numbered along the chain they refer to.

Columns and labels:
[1] = biological target: T1, mouse Tie1 Fc (Mus musculus, UniProt Q06806); test: BIAcore, mouse Tie1 Fc over IgG coated on CM5 chip; format: binding; details: IgG immobilised; Mouse Tie1 Fc analyte
T1 construct: both dimeric (Tie1-Fc fusion protein) and monomeric (Tie1-HIS) versions of the extracellular domain of the Tie1 were used
T1 sequence (Q06806 23-755 limits assumed): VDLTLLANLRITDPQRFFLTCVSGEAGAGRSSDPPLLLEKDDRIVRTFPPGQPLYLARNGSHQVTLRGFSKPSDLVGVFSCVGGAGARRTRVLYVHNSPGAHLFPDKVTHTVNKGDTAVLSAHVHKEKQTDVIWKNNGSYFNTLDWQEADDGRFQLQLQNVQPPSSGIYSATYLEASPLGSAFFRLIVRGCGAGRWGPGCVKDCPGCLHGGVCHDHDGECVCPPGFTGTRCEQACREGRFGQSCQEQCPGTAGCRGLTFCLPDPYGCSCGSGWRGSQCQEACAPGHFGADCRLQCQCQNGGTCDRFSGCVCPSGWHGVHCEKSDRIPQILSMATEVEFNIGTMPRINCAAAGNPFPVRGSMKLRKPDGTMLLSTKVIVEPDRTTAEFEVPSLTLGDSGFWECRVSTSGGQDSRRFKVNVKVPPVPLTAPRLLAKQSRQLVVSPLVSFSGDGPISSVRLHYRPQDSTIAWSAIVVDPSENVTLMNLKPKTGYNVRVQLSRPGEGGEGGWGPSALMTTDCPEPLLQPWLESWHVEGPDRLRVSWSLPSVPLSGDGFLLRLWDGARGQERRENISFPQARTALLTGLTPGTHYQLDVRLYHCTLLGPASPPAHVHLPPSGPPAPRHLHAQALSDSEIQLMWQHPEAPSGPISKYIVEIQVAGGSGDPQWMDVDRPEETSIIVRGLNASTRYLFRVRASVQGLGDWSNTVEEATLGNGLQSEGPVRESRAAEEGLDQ
Protocol: In order to evaluate if the binding behavior had been affected in any way by the conversion of the somatic mutations back to germline, the germlined antibody was produced and tested as an IgG. The germlined E3 was reformatted to an IgG as described. This was then used to transiently transfect HEK293T cells using established procedures. The IgG was purified from the culture supernatant using protein A column chromatography using established procedures and the subsequent IgG was then tested for binding activity using surface plasmon resonance (BIAcore). The germlined E3 IgG1 stock solution 0.63 mg/ml (2146-002) was diluted 1/50 in a buffer of pH 4.5 and the parental E3 IgG1 stock solution 0.56 mg/ml (2143-001) was diluted 1/50 in a buffer of pH 4.5. The IgG were directly coated via onto a CM5 chip. The surface of the chips was activated with a 7 minute pulse of 0.05M NHS/0.2M EDC and the IgG was flowed over until 780RU germlined E3-IgG and 728 non germlined E3 IgG was coated onto the surface. All flow cells were subsequently deactivated with a 7 minute pulse of 1M ethanolamine hydrochloride pH8,5. All analysis was performed in HBS buffer. Purified recombinant mouse Tie1 Fc was diluted 1/6,5 in HBS to obtain a 400 nM stock solution. Serial dilutions were made to obtain 200 nM, 100 nM, 50 nM and 25 nM Tie1 Fc stocks. For analysis of the association phase samples were injected at 30 μl/min for 8.3 minutes using kinject program. This was followed by a 40 minutes dissociation phase. Any antigen remaining associated to the surface was stripped from the IgG surface at a flow of 50 μl/min with two injections of 10 mM glycine pH1.5 for 30 seconds. All samples were run and analyzed in duplicate
(§1) Sensorgrams were analyzed using the simultaneous ka/kd fitting program with 1:1 model in the BIAEVALUATION™ software 3.1.

[2] = biological target: T2, human Tie1 Fc (Homo sapiens, UniProt P35590); test: BIAcore, Fab over biotinylated Tie1-Fc on streptavidin chip; format: binding; details: Fab analyte; for kon: 830 RU
T2 construct: selected against the Tie1 extracellular domain fused to human Fc or to a histidine purification tag
T2 sequence (P35590 22-759 limits assumed): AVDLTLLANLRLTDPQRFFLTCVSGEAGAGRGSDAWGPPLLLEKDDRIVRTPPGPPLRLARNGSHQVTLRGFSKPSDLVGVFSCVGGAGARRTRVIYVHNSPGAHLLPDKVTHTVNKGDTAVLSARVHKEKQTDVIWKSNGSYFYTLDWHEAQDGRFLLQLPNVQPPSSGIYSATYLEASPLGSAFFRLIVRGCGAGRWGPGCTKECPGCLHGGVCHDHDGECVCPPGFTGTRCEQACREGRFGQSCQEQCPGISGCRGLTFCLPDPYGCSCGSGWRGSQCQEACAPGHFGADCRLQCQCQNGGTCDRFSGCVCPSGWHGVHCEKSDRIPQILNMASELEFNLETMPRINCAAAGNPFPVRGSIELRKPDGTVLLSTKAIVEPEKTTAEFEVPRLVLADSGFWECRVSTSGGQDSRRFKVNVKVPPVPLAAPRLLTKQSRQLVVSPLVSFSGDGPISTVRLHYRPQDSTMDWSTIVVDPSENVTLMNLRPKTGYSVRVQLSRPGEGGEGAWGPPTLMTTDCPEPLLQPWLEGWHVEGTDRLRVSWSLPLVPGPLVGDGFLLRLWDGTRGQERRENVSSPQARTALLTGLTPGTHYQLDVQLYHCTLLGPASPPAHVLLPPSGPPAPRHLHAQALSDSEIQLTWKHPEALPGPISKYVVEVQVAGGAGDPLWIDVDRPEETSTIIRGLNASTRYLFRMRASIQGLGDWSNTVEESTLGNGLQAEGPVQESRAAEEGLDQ
Protocol: Recombinant purified human Tie1-Fc antigen (Stock 2.45 mg/ml) was biotinylated using the EZ-link Sulfo-NHS-SS-Biotin (Pierce, Cat. 21331). The reaction was performed for 2 hours on ice in 50 mM sodium carbonate buffer, pH 9.6, in the presence of a 5-fold molar excess of biotinylating agent and was stopped by the addition of Tris-HCl, pH 7.5 (50 mM final concentration) followed by a 1-hour incubation on ice. Samples were then dialyzed against PBS. The antigen was then diluted 1/100 fold in HBS and was then captured onto a streptavidin chip. This was coated to a density of 830RU (resonance units). All analysis was performed in HBS buffer. The parental Fab E3 and germlined E3 Fab were prepared as described above. A stock solution of 0.587 mg/ml (11740 nM) was diluted 1/587 in HBS+BSA to obtain a stock of 20 nM and the germlined Fab E3 0.025 mg/ml (500 nM) was diluted 1/25 in HBS+BSA to obtain a stock of 20 nM. Serial dilutions were made of each Fab preparation to obtain 10 nM, 5 nM, 2.5 nM, and 1.25 nM solutions. For the association phase samples were injected at 30 μl/min for 4 minutes using kinject program. This was followed by a 10 minutes dissociation phase, any remaining sample was stripped from the Tie1 Fc surface at a flow of 50 μl/min with a single injection of 5 mM NaOH+1M NaCl for 18 seconds. All samples were run and analyzed in duplicate.
as §1

B1: E3: human anti-Tie1 antibody from phage Fab library, reformatted as IgG; HC variable SEQ ID NO:114, LC variable SEQ ID NO:116 (antibody, V domains shown)
VH: EVQLLESGGGLVQPGGSLRLSCAASGFTFSMYGMVWVRQAPGKGLEWVSVISPSGGNTGYADSVKGRFTISRDNSKNTLYLQVNSLRAEDTAVYYCARAPRGYSYGYYYWGQGTLVTVSSASTKGPSVFPLAPSSKSTSGG
VL: DIQMTQSPLSLSASVGDRVTITCRASQGIGHYLAWYQQKPGKVPKLLIYTASTLQSGVPSRFSGSGSGTDFTLTINSLQPEDVATYYCQQFNSYPHTFGQGTRLDIK
modifications: IgG constant regions; Synthetically generated peptide
With B1 the “koff” value [1] was 9.2e-05 s⁻¹ and the “kon” value [1] was 6170 M⁻¹ s⁻¹.

B2: germlined E3 Fab: soluble Fab of E3 with LC framework regions germlined to DPK4; LC variable SEQ ID NO:159 (antibody, V domains shown)
VH: B1 VH
VL: B1 VL with L9S, N76S, D105E
With B2 the “koff” value [2] was 0.00102 s⁻¹ and the “kon” value [2] was 300000 M⁻¹ s⁻¹.

B3: DX-2210: E3 antibody in which the light chain has been germlined (antibody, V domains shown)
VH: B1 VH
VL: B1 VL with L9S, N76S, D105E
For B3, the “koff” value [1] was 8.99e-05 s⁻¹ and the “kon” value [1] was 6000 M⁻¹ s⁻¹.

B4: parental E3 Fab: soluble Fab fragment of the parental E3 anti-Tie1 antibody (antibody, V domains shown)
VH: B1 VH
VL: B1 VL
For B4, the “koff” value [2] was 0.00061 s⁻¹ and the “kon” value [2] was 300000 M⁻¹ s⁻¹.
